From article doi:10.1101/282814 (bioRxiv, 2018)

B1: human TRPC6 channel, full length, tags cleaved, in MSP2N2 lipid nanodiscs (natural protein, UniProt Q9Y210 1-931, looked up)
chain: MSQSPAFGPRRGSSPRGAAGAAARRNESQDYLLMDSELGEDGCPQAPLPCYGYYPCFRGSDNRLAHRRQTVLREKGRRLANRGPAYMFSDRSTSLSIEEERFLDAAEYGNIPVVRKMLEECHSLNVNCVDYMGQNALQLAVANEHLEITELLLKKENLSRVGDALLLAISKGYVRIVEAILSHPAFAEGKRLATSPSQSELQQDDFYAYDEDGTRFSHDVTPIILAAHCQEYEIVHTLLRKGARIERPHDYFCKCNDCNQKQKHDSFSHSRSRINAYKGLASPAYLSLSSEDPVMTALELSNELAVLANIEKEFKNDYKKLSMQCKDFVVGLLDLCRNTEEVEAILNGDVETLQSGDHGRPNLSRLKLAIKYEVKKFVAHPNCQQQLLSIWYENLSGLRQQTMAVKFLVVLAVAIGLPFLALIYWFAPCSKMGKIMRGPFMKFVAHAASFTIFLGLLVMNAADRFEGTKLLPNETSTDNAKQLFRMKTSCFSWMEMLIISWVIGMIWAECKEIWTQGPKEYLFELWNMLDFGMLAIFAASFIARFMAFWHASKAQSIIDANDTLKDLTKVTLGDNVKYYNLARIKWDPSDPQIISEGLYAIAVVLSFSRIAYILPANESFGPLQISLGRTVKDIFKFMVIFIMVFVAFMIGMFNLYSYYIGAKQNEAFTTVEESFKTLFWAIFGLSEVKSVVINYNHKFIENIGYVLYGVYNVTMVIVLLNMLIAMINSSFQEIEDDADVEWKFARAKLWFSYFEEGRTLPVPFNLVPSPKSLFYLLLKLKKWISELFQGHKKGFQEDAEMNKINEEKKLGILGSHEDLSKLSLDKKQVGHNKQPSIRSSEDFHLNSFNNPPRQYQKIMKRLIKRYVLQAQIDKESDEVNEGELKEIKQDISSLRYELLEEKSQNTEDLAELIRELGEKLSMEPNQEETNR
B2: N-terminal GFP-tagged hTRPC6 (natural protein, human, UniProt Q9Y210 1-931, looked up)
chain: MSQSPAFGPRRGSSPRGAAGAAARRNESQDYLLMDSELGEDGCPQAPLPCYGYYPCFRGSDNRLAHRRQTVLREKGRRLANRGPAYMFSDRSTSLSIEEERFLDAAEYGNIPVVRKMLEECHSLNVNCVDYMGQNALQLAVANEHLEITELLLKKENLSRVGDALLLAISKGYVRIVEAILSHPAFAEGKRLATSPSQSELQQDDFYAYDEDGTRFSHDVTPIILAAHCQEYEIVHTLLRKGARIERPHDYFCKCNDCNQKQKHDSFSHSRSRINAYKGLASPAYLSLSSEDPVMTALELSNELAVLANIEKEFKNDYKKLSMQCKDFVVGLLDLCRNTEEVEAILNGDVETLQSGDHGRPNLSRLKLAIKYEVKKFVAHPNCQQQLLSIWYENLSGLRQQTMAVKFLVVLAVAIGLPFLALIYWFAPCSKMGKIMRGPFMKFVAHAASFTIFLGLLVMNAADRFEGTKLLPNETSTDNAKQLFRMKTSCFSWMEMLIISWVIGMIWAECKEIWTQGPKEYLFELWNMLDFGMLAIFAASFIARFMAFWHASKAQSIIDANDTLKDLTKVTLGDNVKYYNLARIKWDPSDPQIISEGLYAIAVVLSFSRIAYILPANESFGPLQISLGRTVKDIFKFMVIFIMVFVAFMIGMFNLYSYYIGAKQNEAFTTVEESFKTLFWAIFGLSEVKSVVINYNHKFIENIGYVLYGVYNVTMVIVLLNMLIAMINSSFQEIEDDADVEWKFARAKLWFSYFEEGRTLPVPFNLVPSPKSLFYLLLKLKKWISELFQGHKKGFQEDAEMNKINEEKKLGILGSHEDLSKLSLDKKQVGHNKQPSIRSSEDFHLNSFNNPPRQYQKIMKRLIKRYVLQAQIDKESDEVNEGELKEIKQDISSLRYELLEEKSQNTEDLAELIRELGEKLSMEPNQEETNR

Columns and labels:
cryo-EM structure = biological target: the molecule itself; experiment: cryo-EM structure
SEC = biological target: the molecule itself; experiment: SEC

Protein	stoichiometry N (cryo-EM structure)	stoichiometry N (SEC)
B1	4	
B2		4
